The text below walks through data of article PMC5421625 (2017).

The chains are these.
T1: MCPyV (Merkel cell polyomavirus) common T-Ag peptide on HLA-A*02:01 (human)
T1 peptide: KLLEIAPNC

T2: MCPyV (Merkel cell polyomavirus) common T-Ag peptide on HLA-A*02:01 (human)
T2 peptide: KLLEIAPNC

B1: w830 clonotype 5 (TCR)
alpha TRAV12-1*01 TRAJ43*01 CDR3: CVVNANDMRF
beta TRBV10-3*01 TRBJ2-2*01 CDR3: CAIRARDQNTGELFF
B2: w678 clonotype 4 (TCR)
alpha TRAV12-1*01 TRAJ45*01 CDR3: CVVATYSGGGADGLTF
beta TRBV10-2*01 TRBJ2-3*01 CDR3: CASSSGNPSTDTQYF
B3: w876 clonotype 5 (TCR)
alpha TRAV38-1*01 TRAJ23*01 CDR3: CAYNQGGKLIF
beta TRBV10-2*01 TRBJ2-2*01 CDR3: CASSVLNTGELFF
B4: w830 clonotype 4 (TCR)
alpha TRAV12-1*01 TRAJ43*01 CDR3: CVLNNNDMRF
beta TRBV19*01 TRBJ1-5*01 CDR3: CASSILGASNQPQHF
B5: w678 clonotype 2 (TCR)
alpha TRAV38-1*01 TRAJ43*01 CDR3: CAFRVSHDMRF
beta TRBV19*01 TRBJ2-1*01 CDR3: CASSIIAGSSYNEQFF
B6: w678 clonotype 5 (TCR)
alpha TRAV38-1*01 TRAJ43*01 CDR3: CAFRVSHDMRF
beta TRBV10-2*01 TRBJ2-3*01 CDR3: CASSSGNPSTDTQYF

The first assay addresses T1, MCPyV (Merkel cell polyomavirus) common …. Briefly: multimer staining.
For B1, the binding result is recorded as “recognises”.

In the case of B2, the binding result is “recognises”.

Turning to B3, the binding result was “recognises”.

For the molecule B4, the binding result was “recognises”.

The target in another assay is T2, MCPyV (Merkel cell polyomavirus) common …. Briefly: multimer staining.
In the case of B5, the binding result is listed as “recognises”.

Consider B6, for which the binding result is “recognises”.

As to B2, the binding result is “recognises”.
